Biological target: T1, peptide on HLA-C*06:02 (human)
T1 peptide: TRATKMQVI
Assay: activation reporter or marker

B1: TCR-TRAT (TCR, V domains shown)
Valpha: GEDVEQSLFLSVREGDSSVINCTYTDSSSTYLYWYKQEPGAGLQLLTYIFSNMDMKQDQRLTVLLNKKDKHLSLRIADTQTGDSAIYFCAESSNLSGNTPLVFGKGTRLSVIA
Vbeta: AAGVIQSPRHLIKEKRETATLKCYPIPRHDTVYWYQQGPGQDPQFLISFYEKMQSDKGSIPDRFSAQQFSDYHSELNMSSLELGDSALYFCASGLAGITGELFFGEGSRLTVL
  binding result: recognises
